Key:
Assay in all cases: cleavage_in_vitro
[1] = tested on: T1, OMNI-39 TXTL (Butyrivibrio sp. AC2005); conditions: PAM NNGHAD general, NNGYAA specific
T1 sequence: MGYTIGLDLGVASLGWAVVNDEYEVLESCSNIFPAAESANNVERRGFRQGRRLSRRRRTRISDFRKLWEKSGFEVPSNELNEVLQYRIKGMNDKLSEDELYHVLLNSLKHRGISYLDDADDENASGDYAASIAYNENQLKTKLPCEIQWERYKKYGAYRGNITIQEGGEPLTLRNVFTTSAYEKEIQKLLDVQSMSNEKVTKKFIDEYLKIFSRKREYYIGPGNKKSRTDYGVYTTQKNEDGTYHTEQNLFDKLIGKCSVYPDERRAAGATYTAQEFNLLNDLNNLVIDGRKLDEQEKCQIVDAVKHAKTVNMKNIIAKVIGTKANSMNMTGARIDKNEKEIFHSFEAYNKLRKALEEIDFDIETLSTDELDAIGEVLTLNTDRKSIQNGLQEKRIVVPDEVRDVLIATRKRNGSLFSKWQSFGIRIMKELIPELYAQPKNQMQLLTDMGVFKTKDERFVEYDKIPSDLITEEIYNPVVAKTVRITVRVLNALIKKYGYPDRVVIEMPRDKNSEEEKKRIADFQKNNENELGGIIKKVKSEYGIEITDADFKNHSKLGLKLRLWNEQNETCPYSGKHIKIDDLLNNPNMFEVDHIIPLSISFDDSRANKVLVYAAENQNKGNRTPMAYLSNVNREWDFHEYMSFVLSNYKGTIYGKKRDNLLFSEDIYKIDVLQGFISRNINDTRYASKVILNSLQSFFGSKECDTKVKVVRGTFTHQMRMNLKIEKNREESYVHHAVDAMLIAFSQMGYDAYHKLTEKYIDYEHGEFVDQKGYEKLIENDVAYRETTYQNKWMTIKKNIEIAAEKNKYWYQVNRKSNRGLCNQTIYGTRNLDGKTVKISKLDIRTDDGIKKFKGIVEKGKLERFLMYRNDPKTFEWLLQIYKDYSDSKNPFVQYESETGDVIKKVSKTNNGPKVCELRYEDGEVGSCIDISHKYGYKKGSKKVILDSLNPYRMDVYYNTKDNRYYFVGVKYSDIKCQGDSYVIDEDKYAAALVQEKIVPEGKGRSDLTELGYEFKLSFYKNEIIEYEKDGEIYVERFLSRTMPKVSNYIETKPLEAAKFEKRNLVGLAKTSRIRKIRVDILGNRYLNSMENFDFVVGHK

[2] = tested on: T2, OMNI-53 TXTL (Clostridium sp. AF02-29); conditions: PAM NRHR general, NAWA specific
T2 sequence: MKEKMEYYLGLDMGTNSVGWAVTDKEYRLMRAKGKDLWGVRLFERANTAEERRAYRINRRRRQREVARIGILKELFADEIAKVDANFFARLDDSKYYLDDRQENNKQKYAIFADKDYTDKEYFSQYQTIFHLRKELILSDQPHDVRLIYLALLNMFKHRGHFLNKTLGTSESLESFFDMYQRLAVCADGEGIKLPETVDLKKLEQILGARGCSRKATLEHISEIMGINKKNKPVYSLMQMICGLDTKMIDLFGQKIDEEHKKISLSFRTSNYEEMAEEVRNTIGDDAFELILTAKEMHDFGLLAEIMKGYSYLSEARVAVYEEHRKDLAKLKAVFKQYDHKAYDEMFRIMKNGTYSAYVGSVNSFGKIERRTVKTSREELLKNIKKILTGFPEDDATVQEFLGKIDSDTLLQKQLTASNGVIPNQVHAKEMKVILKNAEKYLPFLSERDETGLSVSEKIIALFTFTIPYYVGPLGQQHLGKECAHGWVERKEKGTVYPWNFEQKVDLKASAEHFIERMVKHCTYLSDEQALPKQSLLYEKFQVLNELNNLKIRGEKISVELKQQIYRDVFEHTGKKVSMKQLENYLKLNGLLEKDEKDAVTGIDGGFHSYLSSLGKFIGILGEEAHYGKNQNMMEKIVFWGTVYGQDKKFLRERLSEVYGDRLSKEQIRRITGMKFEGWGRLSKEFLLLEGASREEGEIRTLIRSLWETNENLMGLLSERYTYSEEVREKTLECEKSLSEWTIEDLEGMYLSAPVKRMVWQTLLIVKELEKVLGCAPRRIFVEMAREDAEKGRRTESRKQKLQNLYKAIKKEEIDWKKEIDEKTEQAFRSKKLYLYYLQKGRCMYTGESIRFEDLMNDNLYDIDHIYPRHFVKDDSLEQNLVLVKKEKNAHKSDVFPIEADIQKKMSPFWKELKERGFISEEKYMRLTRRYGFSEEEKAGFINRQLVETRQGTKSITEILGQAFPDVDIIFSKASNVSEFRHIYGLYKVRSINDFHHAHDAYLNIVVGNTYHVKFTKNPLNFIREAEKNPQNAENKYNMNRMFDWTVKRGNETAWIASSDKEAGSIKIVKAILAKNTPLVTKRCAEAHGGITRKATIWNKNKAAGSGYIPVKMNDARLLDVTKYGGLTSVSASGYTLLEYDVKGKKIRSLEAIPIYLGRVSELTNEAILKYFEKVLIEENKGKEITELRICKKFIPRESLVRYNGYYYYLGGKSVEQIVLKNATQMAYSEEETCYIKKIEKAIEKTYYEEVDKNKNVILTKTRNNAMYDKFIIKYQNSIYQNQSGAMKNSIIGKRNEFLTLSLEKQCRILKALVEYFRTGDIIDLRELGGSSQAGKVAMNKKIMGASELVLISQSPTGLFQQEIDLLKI

[3] = tested on: T3, OMNI-50 TXTL (Ezakiella peruensis strain M6.X2); conditions: PAM NGG
T3 sequence: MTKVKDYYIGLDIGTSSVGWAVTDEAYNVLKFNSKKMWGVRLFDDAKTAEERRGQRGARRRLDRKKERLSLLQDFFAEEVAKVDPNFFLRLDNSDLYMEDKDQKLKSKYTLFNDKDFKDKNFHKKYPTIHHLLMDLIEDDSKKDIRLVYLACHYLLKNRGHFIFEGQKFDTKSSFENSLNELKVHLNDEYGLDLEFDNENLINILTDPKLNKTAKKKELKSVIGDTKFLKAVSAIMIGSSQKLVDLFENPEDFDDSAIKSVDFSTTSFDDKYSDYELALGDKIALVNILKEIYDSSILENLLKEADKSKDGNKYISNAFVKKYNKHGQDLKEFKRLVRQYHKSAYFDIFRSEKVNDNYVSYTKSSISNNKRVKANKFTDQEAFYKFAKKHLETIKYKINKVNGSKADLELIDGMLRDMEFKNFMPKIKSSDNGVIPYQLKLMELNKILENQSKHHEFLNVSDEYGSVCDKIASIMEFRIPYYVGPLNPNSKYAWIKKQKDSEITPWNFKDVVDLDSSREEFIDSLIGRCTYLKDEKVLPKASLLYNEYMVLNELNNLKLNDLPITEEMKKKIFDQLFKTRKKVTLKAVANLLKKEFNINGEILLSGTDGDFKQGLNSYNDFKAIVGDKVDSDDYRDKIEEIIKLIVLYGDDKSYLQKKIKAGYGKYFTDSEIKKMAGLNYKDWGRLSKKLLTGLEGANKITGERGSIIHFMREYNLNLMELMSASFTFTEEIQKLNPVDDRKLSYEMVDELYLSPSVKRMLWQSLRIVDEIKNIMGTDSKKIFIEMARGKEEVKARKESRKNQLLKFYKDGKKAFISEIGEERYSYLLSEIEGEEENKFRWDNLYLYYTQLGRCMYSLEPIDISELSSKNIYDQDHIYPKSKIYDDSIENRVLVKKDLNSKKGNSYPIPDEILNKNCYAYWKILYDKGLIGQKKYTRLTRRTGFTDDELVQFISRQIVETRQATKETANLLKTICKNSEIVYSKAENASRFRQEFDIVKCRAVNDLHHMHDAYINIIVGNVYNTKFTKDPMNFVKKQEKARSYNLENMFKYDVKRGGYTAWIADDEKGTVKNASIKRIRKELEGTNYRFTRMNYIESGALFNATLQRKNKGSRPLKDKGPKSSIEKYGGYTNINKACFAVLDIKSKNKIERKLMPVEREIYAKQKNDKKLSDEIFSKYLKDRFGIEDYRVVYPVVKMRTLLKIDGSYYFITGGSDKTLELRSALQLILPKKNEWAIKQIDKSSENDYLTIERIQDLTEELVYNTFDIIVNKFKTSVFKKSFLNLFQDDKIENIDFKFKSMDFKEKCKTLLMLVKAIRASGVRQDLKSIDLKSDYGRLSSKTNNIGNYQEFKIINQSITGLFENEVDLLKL

[4] = tested on: T4, OMNI-40 TXTL (Aliiarcobacter faecis); conditions: PAM NYGRV
T4 sequence: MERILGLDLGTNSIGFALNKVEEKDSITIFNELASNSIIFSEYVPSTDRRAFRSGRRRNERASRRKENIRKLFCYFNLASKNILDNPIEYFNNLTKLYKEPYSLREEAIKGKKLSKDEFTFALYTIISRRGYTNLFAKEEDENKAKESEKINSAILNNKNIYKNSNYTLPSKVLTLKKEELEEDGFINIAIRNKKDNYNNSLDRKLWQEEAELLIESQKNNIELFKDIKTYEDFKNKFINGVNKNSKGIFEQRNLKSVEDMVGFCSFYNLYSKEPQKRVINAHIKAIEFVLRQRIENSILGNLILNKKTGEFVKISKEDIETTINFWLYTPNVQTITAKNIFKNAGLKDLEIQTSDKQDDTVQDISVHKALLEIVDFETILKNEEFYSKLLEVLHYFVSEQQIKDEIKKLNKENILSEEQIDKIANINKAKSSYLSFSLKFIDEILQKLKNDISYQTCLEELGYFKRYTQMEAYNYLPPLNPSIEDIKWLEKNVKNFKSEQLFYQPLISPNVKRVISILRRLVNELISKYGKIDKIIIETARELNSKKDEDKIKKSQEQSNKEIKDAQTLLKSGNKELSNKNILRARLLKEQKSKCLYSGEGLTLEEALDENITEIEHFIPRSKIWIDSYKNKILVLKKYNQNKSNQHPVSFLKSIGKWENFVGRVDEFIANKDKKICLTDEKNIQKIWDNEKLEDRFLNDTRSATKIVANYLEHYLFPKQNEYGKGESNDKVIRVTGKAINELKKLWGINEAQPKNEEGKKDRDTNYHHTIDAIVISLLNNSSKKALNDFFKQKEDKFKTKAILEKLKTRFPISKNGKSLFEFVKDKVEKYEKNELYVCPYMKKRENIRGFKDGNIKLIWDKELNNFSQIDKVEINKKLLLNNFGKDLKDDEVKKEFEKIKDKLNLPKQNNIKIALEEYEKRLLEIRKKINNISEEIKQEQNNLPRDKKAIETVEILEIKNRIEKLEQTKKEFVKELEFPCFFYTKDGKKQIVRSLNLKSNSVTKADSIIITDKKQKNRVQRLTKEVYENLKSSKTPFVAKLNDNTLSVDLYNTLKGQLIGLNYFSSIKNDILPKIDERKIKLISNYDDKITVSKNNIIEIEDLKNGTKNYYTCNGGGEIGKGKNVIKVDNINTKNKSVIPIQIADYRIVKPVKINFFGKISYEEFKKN

How did the activity (1-depletion score) [1] turn out when “GGAAGAGCAGAGCCUUGGUCUCGUUUUAGUACCUAGAGAAAGAAAUUUCUUUAGACCUACUAAAAUAAGGCUUUAUGCCGAGAUUAAAGGAUGCCGACGGGCAUCCUUUUUU / GGAAGAGCAGAGCCTTGGTCTCNNNNNNNN / NNNNNNNNGAGACCAAGGCTCTGCTCTTCC [T2 sgRNA V2 OMNI-39 ; T2 protospacer 8N PAM library]” was run?
Its activity (1-depletion score) is 0.95.

With “GGAAGAGCAGAGCCUUGGUCUCGUUUGAGAACCAUGUAAGAAAUUACAUGGUGAGUGCAAAUAAGGAUUAUCCGAAAUUGUAUGCCCGCAUUGUGCGGCAAUAAAAAGGCUCGAAAGAGUCUUUUU / GGAAGAGCAGAGCCTTGGTCTCNNNNNNNN / NNNNNNNNGAGACCAAGGCTCTGCTCTTCC [T2 sgRNA V2 OMNI-53 ; T2 protospacer 8N PAM library]” as the sequence, how does the activity (1-depletion score) [2] read?
The activity (1-depletion score) was 0.97.

Which activity (1-depletion score) [3] does the source give for “GGAAGAGCAGAGCCUUGGUCUCGUUUGAGAGUUAUGUAAGAAAUUACAUGACGAGUUCAAAUAAAAAUUUAUUCAAACCGCCUAUUUAUAGGCCGCAGAUGUUCUGCAUUAUGCUUGCUAUUGCAAGCUUUUUU / GGAAGAGCAGAGCCTTGGTCTCNNNNNNNN / NNNNNNNNGAGACCAAGGCTCTGCTCTTCC [T2 sgRNA V2 OMNI-50 ; T2 protospacer 8N PAM library]” here?
Its activity (1-depletion score) is 0.98.

How did the activity (1-depletion score) [4] turn out when “GGAAGAGCAGAGCCUUGGUCUCGUUUUGUUACCAUAUGAUUGAAAAUUUAUAUGACCUAACAAAACAAGGGUUUAUCCCGGACUCGGCUCUUCGGAGCCUUUUU / GGAAGAGCAGAGCCTTGGTCTCNNNNNNNN / NNNNNNNNGAGACCAAGGCTCTGCTCTTCC [T2 sgRNA V2 OMNI-40 ; T2 protospacer 8N PAM library]” was run?
The activity (1-depletion score) was 0.97.
